Measured values taken from patent US20080199514A1 (BURNHAM INSTITUTE, published 2008).
Changes are numbered by the printed parent chain.

T1: Lck phosphopeptide (ARLIEDNEpYTAAREG)
T1 chain: ARLIEDNEYTAAREG

B1: full length Hemagglutinin (HA) tagged LYP having R620 (protein)
chain: MDQREILQKFLDEAQSKKITKEEFANEFLKLKRQSTKYKADKTYPTTVAEKPKNIKKNRYKDILPYDYSRVELSLITSDEDSSYINANFIKGVYGPKAYIATQGPLSTTLLDFWRMIWEYSVLIIVMACMEYEMGKKKCERYWAEPGEMQLEFGPFSVSCEAEKRKSDYIIRTLKVKFNSETRTIYQFHYKNWPDHDVPSSIDPILELIWDVRCYQEDDSVPICIHCSAGCGRTGVICAIDYTWMLLKDGIIPENFSVFSLIREMRTQRPSLVQTQEQYELVYNAVLELFKRQMDVIRDKHSGTESQAKHCIPEKNHTLQADSYSPNLPKSTTKAAKMMNQQRTKMEIKESSSFDFRTSEISAKEELVLHPAKSSTSFDFLELNYSFDKNADTTMKWQTKAFPIVGEPLQKHQSLDLGSLLFEGCSNSKPVNAAGRYFNSKVPITRTKSTPFELIQQRETKEVDSKENFSYLESQPHDSCFVEMQAQKVMHVSSAELNYSLPYDSKHQIRNASNVKHHDSSALGVYSYIPLVENPYFSSWPPSGTSSKMSLDLPEKQDGTVFPSSLLPTSSTSLFSYYNSHDSLSLNSPTNISSLLNQESAVLATAPRIDDEIPPPLPVRTPESFIVVEEAGEFSPNVPKSLSSAVKVKIGTSLEWGGTSEPKKFDDSVILRPSKSVKLRSPKSELHQDRSSPPPPLPERTLESFFLADEDCMQAQSIETYSTSYPDTMENSTSSKQTLKTPGKSFTRSKSLKILRNMKKSICNSCPPNKPAESVQSNNSSSFLNFGFANRFSKPKGPRNPPPTWNI
B2: S-tagged LYP polypeptide corresponding to amino acid residues 603-710 with arginine at position 620 (other, human, UniProt Q9Y2R2 603-710, looked up)
chain: LATAPRIDDEIPPPLPVRTPESFIVVEEAGEFSPNVPKSLSSAVKVKIGTSLEWGGTSEPKKFDDSVILRPSKSVKLRSPKSELHQDRSSPPPPLPERTLESFFLADE
notes: Expressed in E. coli BL21; also called Construct 1; not shown: S-tag and other vector-derived residues from pET-30 (Novagen)
B3: S-tagged LYP polypeptide corresponding to amino acid residues 603-710 with tryptophan at position 620 (other, human, UniProt Q9Y2R2 603-710, looked up)
chain: B2 chain with R18W
notes: Expressed in E. coli BL21; also called Construct 2; not shown: S-tag and other vector-derived residues from pET-30 (Novagen)

Key:
[1] = target: T1, Lck phosphopeptide (ARLIEDNEpYTAAREG)
[2] = target: T2, GST tag alone (UniProt P08515 1-218 = GST); test: GST pull-down with glutathione-agarose from E. coli BL21 lysates, S-protein-HRP blot
T2 construct: Negative control of the pull-down; also called GST alone
T2 sequence (P08515 whole entry): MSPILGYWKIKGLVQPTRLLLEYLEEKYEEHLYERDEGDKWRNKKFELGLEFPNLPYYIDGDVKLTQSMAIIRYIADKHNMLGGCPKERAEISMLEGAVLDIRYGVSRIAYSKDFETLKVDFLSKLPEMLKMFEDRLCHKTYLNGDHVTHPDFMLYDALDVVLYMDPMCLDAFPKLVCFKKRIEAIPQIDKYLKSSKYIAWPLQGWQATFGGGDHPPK
Experimental: The s-tagged constructs were prepared using pET-30, (Novagen, San Diego, Calif. 92121), however, other vector systems can be used. […] The constructs were equally expressed using E. coli BL21. Either a GST-Tagged SH3 domain of Csk or a GST tag alone was co-expressed with the LYP fragment constructs. A glutathione-agarose bead was added to each of the BL21 lysates. Precipitated proteins were separated by gel-electrophoresis and transferred to a nitrocellulose filter. The filters were incubated with S-protein HRP and ECL reagent to allow for chemiluminescent detection of Csk bound LYP. […] None of the constructs precipitated when co-expressed with GST alone. In this example, bound material was detected using S-protein-horseradish peroxidase.

[3] = target: T3, endogenous Csk from Jurkat T cells (UniProt P41240 2-450, limits assumed); test: S-tag pull-down from Jurkat T cell lysate, anti-Csk blot
T3 construct: mature; Native protein in the cell lysate
T3 sequence (P41240 2-450 limits assumed): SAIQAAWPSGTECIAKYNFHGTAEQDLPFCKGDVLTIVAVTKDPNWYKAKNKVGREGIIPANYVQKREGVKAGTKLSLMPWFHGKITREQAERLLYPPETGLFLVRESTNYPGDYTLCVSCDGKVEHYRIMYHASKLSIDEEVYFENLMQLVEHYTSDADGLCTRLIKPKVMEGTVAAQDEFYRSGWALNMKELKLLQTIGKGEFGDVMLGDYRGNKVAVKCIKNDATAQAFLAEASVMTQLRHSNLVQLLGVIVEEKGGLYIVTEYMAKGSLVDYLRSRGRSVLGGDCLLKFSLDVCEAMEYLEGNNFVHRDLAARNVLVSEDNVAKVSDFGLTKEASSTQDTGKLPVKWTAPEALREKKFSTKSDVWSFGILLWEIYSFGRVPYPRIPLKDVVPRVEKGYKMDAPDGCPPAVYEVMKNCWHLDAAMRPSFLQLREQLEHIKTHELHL
Experimental: Jurkat T cells, which endogenously express Csk, were lysed and the protein lysate was subjected to a pull down assay using S-tagged LYP either having R620 or having W620. A blot was performed and detection was carried out using an anti-Csk primary antibody in a two-stage detection system.

| Binder | Dephosphorylation of an Lck phosphopeptide by immunoprecipitated HA-tagged LYP [1] | binding result [2] | binding result [3] |
| --- | --- | --- | --- |
| B1 | Immunoprecipitated LYP*R620 dephosphorylated 6.312±1.596 pmoles of substrate/min/106 transfected cells (n=5) | – | – |
| B2 | – | no binding | – |
| B3 | – | no binding | no binding |
